{
  "source": "patent US20190117753A1",
  "about": "(VIRGINIA COMMONWEALTH UNIVERSITY, published 2019)",
  "target": "T1, sLe^x-capped PSGL-1 on transfected Chinese hamster ovary cells (PSGL-1 CHO cells) (UniProt Q14242 42-412, sLe^x-capped (sialylated and fucosylated) glycans (so in the source))",
  "T1 construct": "whole, on cells; also called sialylated PSGL-1; sLe^x-modified PSGL-1",
  "T1 sequence": "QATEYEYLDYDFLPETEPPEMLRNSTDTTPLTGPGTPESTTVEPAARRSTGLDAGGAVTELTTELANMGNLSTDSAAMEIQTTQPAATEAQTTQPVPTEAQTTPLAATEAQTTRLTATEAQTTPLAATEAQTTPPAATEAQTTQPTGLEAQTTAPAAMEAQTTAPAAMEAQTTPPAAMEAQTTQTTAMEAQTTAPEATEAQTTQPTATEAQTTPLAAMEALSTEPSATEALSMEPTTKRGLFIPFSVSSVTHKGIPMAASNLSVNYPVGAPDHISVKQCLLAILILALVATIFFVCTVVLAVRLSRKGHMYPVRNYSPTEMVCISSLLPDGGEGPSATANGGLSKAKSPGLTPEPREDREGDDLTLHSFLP",
  "test": "PSGL-1 CHO cells preincubated with GST-OmpA; competitor: Aph organisms (data not shown)",
  "data": [
    {"binder": "GST-OmpA (N-terminal glutathione-S-transferase-tagged A. phagocytophilum OmpA, excluding the signal sequence) (other, also called GST-ApOmpA; GST-tagged Aph OmpA; not shown: glutathione-S-transferase (GST) tag, N-terminal, from the pDest-15 vector) CGTLLPDSNVGVGRHDLGSHRSVAFAKKVEKVYFDIGKYDLKGPGKKVILELVEQLRQDDSMYLVVIGHADATGTEEYSLALGEKRANAVKQFIIGCDKSLAPRVTTQSRGKAEPEVLVYSTDAQEVEKANAQNRRAVIVVEFAHIPRSGVADMHAPVASSITSENSNASAEGEDMEASEFSSAIAN", "values": [
      {"measurement": "reduction of Aph binding to sLe^x-modified PSGL-1 relative to GST alone", "result": "~60", "unit": "%"}
    ]}
  ]
}
